Source: PMC7118173 (Nature Communications, 2020)
Where a chain is given by its changes, count along the chain named.

Legend:
SepF [1] = assay: Western blots of whole-cell extracts (SepF depletion / expression); type: cell-based, C. glutamicum; conditions: Pino-sepF strain, 1% myo-inositol
Procedure: 24 homogenizer. Crude extracts (120 μg) were analyzed by SDS-PAGE, electro-transferred onto a 0.2 μm Nitrocellulose membrane and blocked with 5% (w/v) skimmed milk. Membranes were incubated with an anti-SepF antibody (produced by Covalab, Supplementary Fig. 25a), an anti-FtsZ antibody (produced by Proteogenix, Supplementary Fig. 25b) or an anti-mNeonGreen antibody (purchased from Chromotek) for 1 h at room temperature.

Pino-sepF strain [2] = assay: Growth curves / complementation of the Pino-sepF strain
Procedure: Positive colonies were grown in BHI media supplemented with 25 µg/ml kanamycin overnight at 30 °C and 120 rpm shaking.
All strains were plated in CGXII media plates with 4% (w/v) sucrose as a carbon source for 2 days at 30 °C and then single colonies were inoculated in 10 ml of CGXII media 4% (w/v) sucrose overnight at 30 °C and 120 rpm shaking. The next day, 20 ml of CGXII media supplemented with the appropriate repressor or inducer were inoculated with the overnight cultures to a starting OD600 of 1. OD600 measurements were taken every 1.5 h. Each growth curve represents the average of three different growth curves originally from three different single colonies. […] When required, CGXII media 4% (w/v) sucrose was supplemented with either 1% (w/v) myo-inositol, 50 ng/ml tetracycline or 1% (w/v) gluconate and 25 μg/ml kanamycin.

[3] = system: C. glutamicum ATCC13032 whole-cell extracts; assay: SepF and FtsZ quantification by Western blot; type: cell-based, Corynebacterium glutamicum; conditions: 60 ugr loaded
[4] = target: the molecule itself; assay: turbidity + dynamic light scattering; SepF or SepF mutant with SUVs (POPC:POPG 8:2), 50 µM each, 100 mM KCl, 10 mM MgCl2, 25 mM Pipes pH 6.9, 25 °C
Pino-sepF strain [5] = assay: Cell length distribution (violin plots), Pino-sepF strains; type: cell-based, Corynebacterium glutamicum
Procedure: For imaging, cultures of C. glutamicum were grown in BHI or minimal medium CGXII during the day, and washed and inoculated into CGXII media for overnight growth. The following day cultures were diluted to OD600 = 1 and grown to the required OD (early exponential phase) for imaging. For HADA labeling, cultures were incubated with 0.5 mM HADA for 20 min at 30 °C in the dark. Two percent agarose pads were prepared with the corresponding growth medium and cells were visualized using a Zeiss Axio Observer Z1 microscope fitted with an Orca Flash 4 V2 sCMOS camera (Hamamatsu), and a Pln-Apo 63×/1.4 oil Ph3 objective. Images were collected using Zen Blue 2.6 (Zeiss) and analyzed using the software Fiji[70] and the plugin MicrobeJ[71] to generate violin plots and fluorescent intensity heatmaps. […] The experiments were performed as biological triplicates.

WT C. glutamicum = assay: Number of ring-like structures per cell, overexpression in WT; type: cell-based, Corynebacterium glutamicum
[6] = target: the molecule itself; assay: crystal structure; SepFΔML 10 mg/ml with FtsZCTD 5.8 mg/ml (1:5 molar ratio), 100 mM sodium acetate pH 4.6, 30% PEG 4000, 18 °C; 1.6 Å
[7] = Negative stain EM of SepF rings; type: physicochemical; conditions: 50 μM, 50 mM HEPES pH 7.4, 300 mM KCl, 10 mM MgCl2
Procedure: For all samples, 400 mesh carbon coated grids (Electron Microscopy Sciences; CF 400-Cu) were glow-discharged on an ELMO system for 30 sec at 2 mA. 5 µl samples were applied onto the grids and incubated for 30 s, the sample was blotted, washed in 3 drops of water and then stained with 2% (weight/vol) uranyl acetate. Images were recorded on a Gatan UltraScan4000 charged coupled device (CCD) camera (Gatan) on a Tecnai T12 BioTWINLaB6 electron microscope operating at a voltage of 120 kV.

His6-Sumo tagged SepFΔML = target: T1, His6-Sumo tagged SepFΔML (Corynebacterium glutamicum, UniProt Q8NNN6 63-152); assay: SPR; Biacore T200, 25 °C, 25 mM HEPES pH 8, 150 mM KCl, 0.1 mM EDTA; His6-Sumo SepF variants covalently immobilised on NTA chips (3000-4000 RU); FtsZCTD 1.56 to 400 µM injected; steady-state fit; apparent Kd; conditions: both partners purified
T1 construct: SepF (cg2363), Corynebacterium glutamicum, amino acids 63 to 152; Covalently immobilised on an NTA sensor chip; also called immobilized SepF; source: E. coli BL21 (DE3), purified (Ni-NTA, dialysed directly without SUMO protease for SPR); not shown: His6, N-terminal, kept; SUMO, N-terminal, kept
T1 sequence (looked up): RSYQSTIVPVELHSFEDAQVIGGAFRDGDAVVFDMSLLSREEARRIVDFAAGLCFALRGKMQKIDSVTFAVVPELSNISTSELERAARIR

[8] = target: T2, His6-Sumo tagged SepF_(ΔML,F131A) (Corynebacterium glutamicum, UniProt Q8NNN6 63-152, F131A); assay: as above; conditions: both partners purified
T2 construct: SepF (cg2363), Corynebacterium glutamicum, amino acids 63 to 152 with F131A; also called SepF_(F131A); source: E. coli BL21 (DE3), purified (Ni-NTA, dialysed directly without SUMO protease for SPR); not shown: His6, N-terminal, kept; SUMO, N-terminal, kept
T2 sequence (looked up): T1 sequence (looked up) with F69A

[9] = target: the molecule itself; assay: crystal structure; SepF_(ΔML,Δα3) 17 mg/ml alone, 0.1 M MES pH 6, 20% PEG MME 2000, 0.2 M NaCl, 18 °C
[10] = target: the molecule itself; assay: SEC + AUC; sedimentation velocity, 42,000 rpm, 20 °C, 1-2 mg/ml, 50 mM Hepes pH 7.4, 150 mM KCl, 10 mM MgCl2; size exclusion chromatography
SepF [11] = assay: SepF polymerization (turbidity) assay in the presence of SUVs; type: biochemical, C. glutamicum; conditions: SepF (or mutant) plus SUVs 50 µM each, pH 6.9, 25 °C
Procedure: When used, FtsZCTD was added at a final concentration of 100 μM.
Reverse phase evaporation was used to prepare small unilamellar vesicles (SUVs). A 10 mM lipid solution made of an 8:2 mixture of 1-palmitoyl-2-oleoyl phosphatidylcholine (POPC) and 1-palmitoyl-2-oleoylglycero-3-phosphoglycerol (POPG) (Avanti Polar Lipids) was prepared as described. Chloroform was removed by evaporation under vacuum conditions and the dried phospholipid film was resuspended in a mixture of diethyl ether and buffer (25 mM Hepes pH 7.4, 10 mM MgCl2 and 150 mM KCl). Diethyl ether was eliminated by reverse phase evaporation and by slowly decreasing the pressure to the vacuum. SUVs were obtained by sonication during 30 min at 4 °C. The diameter and charge of SUV were determined by measuring dynamic light scattering (DLS) and electrophoretic mobility profiles on a Zetasizer Nano instrument (Malvern Instruments).

Dynamic light scattering = type: physicochemical; conditions: protein alone
Procedure: Polydispersity of the samples was measured using Dyna-pro Plate Reader (Wyatt technology) equipped with an 830 nm laser and a temperature control module. The Dynamics software (version 7.9) was used to schedule data acquisition and data analysis. For each well, 20 measurements of 10 s were averaged and this operation was repeated 20 times for each condition at 25 °C. For samples containing FtsZCTD, the peptide was used at a final concentration of 100 µM. All the experiments were carried out as minimum three biological and technical replicates.

[12] = Negative stain EM of SUVs with SepF; type: biochemical; conditions: SepFΔα3 + SUVs, upon addition of FtsZCTD

## O[C@H]1[C@H](O)[C@@H](O)[C@H](O)[C@@H](O)[C@H]1O [myo-inositol, reference compound]
SepF [1]
  SepF protein level: rapid depletion of SepF
Pino-sepF strain [2]; 1% myo-inositol, after the first 6 h
  growth of Pino-sepF: growth stopped for the depleted strain

## FtsZ: C. glutamicum FtsZ (cg2366)
[3]; ON S (over-night, sucrose)
  band volume in whole-cell extract: 14.8379
[3]; ON S+G (over-night, sucrose + gluconate)
  band volume in whole-cell extract: 18.4228
[3]; T6 S (6 h, sucrose)
  band volume in whole-cell extract: 20.1825
[3]; T6 S+G (6 h, sucrose + gluconate)
  band volume in whole-cell extract: 23.8045

B1: full-length C. glutamicum SepF (recombinant) (natural protein, Corynebacterium glutamicum, UniProt Q8NNN6 1-152, looked up)
chain: MSMLKKTKEFFGLAPYEAEHEDAYYADEPRYEGTAAYAPEYRERDYGYAPEAPAPVAPSPAPRSYQSTIVPVELHSFEDAQVIGGAFRDGDAVVFDMSLLSREEARRIVDFAAGLCFALRGKMQKIDSVTFAVVPELSNISTSELERAARIR
notes: SepF (cg2363), Corynebacterium glutamicum, full length; source: E. coli BL21 (DE3), purified (Ni-NTA, SUMO protease, SEC); not shown: His6, N-terminal, cleaved; SUMO, N-terminal, cleaved
[4]
  binding result: binds

B2: SepF-Scarlet: mScarlet-I fused on the C-terminal side of SepF (protein)
chain: B1 chain
modifications: left off: mScarlet-I, C-terminal, kept
Pino-sepF strain [5]; 1% myo-inositol + 1% gluconate, t = 6, replicate 1, listed as PgntK_SepF_Scarlet
  mean cell length: 5.38
Pino-sepF strain [5]; PgntK, compared with control cells
  cell elongation on complementation: cells were more elongated than control cells
WT C. glutamicum; n septa 0, replicate 1
  frequency of cells with n septa (ring-like structures): 0.369
WT C. glutamicum; n septa 0, replicate 2
  frequency of cells with n septa (ring-like structures): 0.283
WT C. glutamicum; n septa 0, replicate 3
  frequency of cells with n septa (ring-like structures): 0.282
WT C. glutamicum; n septa 1, replicate 1
  frequency of cells with n septa (ring-like structures): 0.513
WT C. glutamicum; n septa 1, replicate 2
  frequency of cells with n septa (ring-like structures): 0.547
WT C. glutamicum; n septa 1, replicate 3
  frequency of cells with n septa (ring-like structures): 0.565
WT C. glutamicum; n septa 2, replicate 1
  frequency of cells with n septa (ring-like structures): 0.104
WT C. glutamicum; n septa 2, replicate 2
  frequency of cells with n septa (ring-like structures): 0.153
WT C. glutamicum; n septa 2, replicate 3
  frequency of cells with n septa (ring-like structures): 0.127
WT C. glutamicum; n septa 3, replicate 1
  frequency of cells with n septa (ring-like structures): 0.014
WT C. glutamicum; n septa 3, replicate 2
  frequency of cells with n septa (ring-like structures): 0.017
WT C. glutamicum; n septa 3, replicate 3
  frequency of cells with n septa (ring-like structures): 0.025
WT C. glutamicum; n septa 4, replicate 1
  frequency of cells with n septa (ring-like structures): 0
WT C. glutamicum; n septa 4, replicate 2
  frequency of cells with n septa (ring-like structures): 0
WT C. glutamicum; n septa 4, replicate 3
  frequency of cells with n septa (ring-like structures): 0
WT C. glutamicum; n septa 5, replicate 1
  frequency of cells with n septa (ring-like structures): 0
WT C. glutamicum; n septa 5, replicate 2
  frequency of cells with n septa (ring-like structures): 0
WT C. glutamicum; n septa 5, replicate 3
  frequency of cells with n septa (ring-like structures): 0
WT C. glutamicum; n septa 6, replicate 1
  frequency of cells with n septa (ring-like structures): 0
WT C. glutamicum; n septa 6, replicate 2
  frequency of cells with n septa (ring-like structures): 0
WT C. glutamicum; n septa 6, replicate 3
  frequency of cells with n septa (ring-like structures): 0
WT C. glutamicum; n septa 7, replicate 1
  frequency of cells with n septa (ring-like structures): 0
WT C. glutamicum; n septa 7, replicate 2
  frequency of cells with n septa (ring-like structures): 0
WT C. glutamicum; n septa 7, replicate 3
  frequency of cells with n septa (ring-like structures): 0
WT C. glutamicum; overexpression in WT background
  ring-like structures per cell: mostly single rings at mid-cell
Pino-sepF strain [2]; SepF depletion with 1% myo-inositol, exogenous construct induced
  complementation of SepF depletion (growth): complemented the SepF depletion strain for growth

B3: C. glutamicum SepF C-terminal core domain (SepFΔML), tag removed (domain or fragment, Corynebacterium glutamicum, UniProt Q8NNN6 63-152, looked up)
chain: T1 sequence (looked up)
notes: Gene codon optimised and synthesised for E. coli; homodimer in the crystal; also called globular core of SepF; source: E. coli BL21 (DE3), purified (Ni-NTA, SUMO protease, SEC); not shown: His6, N-terminal, cleaved; SUMO, N-terminal, cleaved
[6]
  binding result: binds

B4: M. tuberculosis SepFΔML (domain or fragment)
chain: EDGHPLSKITTLRPKDYSEARTIGERFRDGSPVIMDLVSMDNADAKRLVDFAAGLAFALRGSFDKVATKVFLLSPADVDVSPEERRRIAETGFYAYQ
notes: also called MtbSepFΔML
[7]
  ring diameter: ~ 40 nm

B5: FtsZCTD peptide (conserved C-terminal domain of C. glutamicum FtsZ, 10 residues) (peptide)
peptide: DDLDVPSFLQ
notes: C-terminal 10 residues of FtsZ (cg2366), Corynebacterium glutamicum; the printed residues D436, P438 and F440 place the peptide at 433-442; also called FtsZ C-terminal domain peptide; source: synthetic peptide, bought: Genosphere
His6-Sumo tagged SepFΔML
  Kd: 15 µM
[8]
  Kd: 340 µM

B6: SepF_(ΔML,Δα3) (domain or fragment, Corynebacterium glutamicum, UniProt Q8NNN6 63-137, looked up)
chain: RSYQSTIVPVELHSFEDAQVIGGAFRDGDAVVFDMSLLSREEARRIVDFAAGLCFALRGKMQKIDSVTFAVVPEL
notes: SepF (cg2363), Corynebacterium glutamicum, amino acids 63 to 137 (core domain without the C-terminal helix α3); Dimers associate into linear polymers in the crystals; source: E. coli BL21 (DE3), purified (Ni-NTA, SUMO protease, SEC); not shown: His6, N-terminal, cleaved; SUMO, N-terminal, cleaved
[9]
  binding result: binds

B7: C. glutamicum SepF devoid of helix α3 (construct of the SEC and AUC experiments) (domain or fragment)
chain: B6 chain with R1M
[10]
  stoichiometry N: 2

B8: SepFΔα3 (domain or fragment, Corynebacterium glutamicum, UniProt Q8NNN6 1-137, looked up)
chain: MSMLKKTKEFFGLAPYEAEHEDAYYADEPRYEGTAAYAPEYRERDYGYAPEAPAPVAPSPAPRSYQSTIVPVELHSFEDAQVIGGAFRDGDAVVFDMSLLSREEARRIVDFAAGLCFALRGKMQKIDSVTFAVVPEL
notes: SepF (cg2363), Corynebacterium glutamicum, amino acids 1 to 137 (without the C-terminal helix α3); source: E. coli BL21 (DE3), purified (Ni-NTA, SUMO protease, SEC); not shown: His6, N-terminal, cleaved; SUMO, N-terminal, cleaved
[4]
  binding result: binds

B9: SepFΔα3: SepF amino acids 1 to 137, lacking the regulatory C-terminal helix (protein)
chain: B8 chain
modifications: left off: His6, N-terminal, cleaved | SUMO, N-terminal, cleaved
SepF [11]
  polymerization with SUVs (turbidity): polymerization and vesicle tubulation were also seen but could only be partially reversed
Dynamic light scattering
  dispersity by DLS: monodisperse
[12]
  reversal by FtsZCTD of particle formation and vesicle tubulation: only partially reversed
